Seven molecules from patent publication US20130129725A1 (published 2013) can be followed below.

This test deals with biotinylated hu-β-klotho (UniProt Q86Z14 53-996, biotinylated (sites not given)). Kind of test: Octet BLI. For orientation: In BLI a coated tip is dipped into the sample, and binding shifts an interference pattern.

Changes are numbered by the printed parent chain.

Chain of biotinylated hu-β-klotho (Q86Z14 53-996): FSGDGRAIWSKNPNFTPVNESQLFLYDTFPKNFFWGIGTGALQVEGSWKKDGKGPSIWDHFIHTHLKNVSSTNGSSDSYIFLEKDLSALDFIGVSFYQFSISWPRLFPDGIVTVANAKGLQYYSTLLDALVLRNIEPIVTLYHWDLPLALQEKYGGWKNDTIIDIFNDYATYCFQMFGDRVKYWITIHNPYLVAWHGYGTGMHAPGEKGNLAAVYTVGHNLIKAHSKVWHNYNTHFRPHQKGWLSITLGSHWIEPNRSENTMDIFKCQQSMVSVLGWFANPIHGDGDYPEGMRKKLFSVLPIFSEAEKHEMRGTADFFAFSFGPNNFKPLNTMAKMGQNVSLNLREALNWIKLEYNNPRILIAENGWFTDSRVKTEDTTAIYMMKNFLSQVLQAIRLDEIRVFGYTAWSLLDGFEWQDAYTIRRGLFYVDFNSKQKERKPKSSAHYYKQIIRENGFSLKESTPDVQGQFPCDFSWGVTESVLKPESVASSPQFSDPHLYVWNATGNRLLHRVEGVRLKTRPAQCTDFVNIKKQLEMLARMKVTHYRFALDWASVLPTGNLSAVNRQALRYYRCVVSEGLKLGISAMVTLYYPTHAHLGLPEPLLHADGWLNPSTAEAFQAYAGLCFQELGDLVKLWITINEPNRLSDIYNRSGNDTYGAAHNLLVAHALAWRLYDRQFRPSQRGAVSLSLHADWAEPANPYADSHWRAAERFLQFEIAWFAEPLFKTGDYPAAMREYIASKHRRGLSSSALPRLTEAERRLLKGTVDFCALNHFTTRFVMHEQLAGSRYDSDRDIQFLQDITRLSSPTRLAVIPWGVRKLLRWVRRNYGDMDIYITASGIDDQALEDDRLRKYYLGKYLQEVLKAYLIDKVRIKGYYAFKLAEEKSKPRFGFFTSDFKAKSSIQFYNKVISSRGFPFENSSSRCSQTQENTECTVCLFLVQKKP

B1: 8F9 (antibody, V domains shown)
VH: QVQLVESGGGVVQPGRSLRLSCAASGFTFSSYGMHWVRQAPGKGLEWVAVIWYDGRNKYHADSVKGRFTISRDNSKNTLYLQMNSLRAEDTAVYYCARDHPVAGTSFDYWGQGTLVTVSS
VL: QSVLTQPPSVSAAPGQKVTISCSGSSSNIGNNYVSWYQQLPGTAPKLLIYDNNKRPSGIPDRFSGSKSGTSATLGITGLQTGDEADYYCGTWDSSLSAVVFGGGTKLTVLG
Molecule B1 gave a Kd of 0.422 nM.

B2: 9D10 (antibody, V domains shown)
VH: B1 VH with S30R, K58E, H60Y, Q82R
VL: B1 VL with K54R
The molecule B2 registered a dissociation constant Kd of 0.298 nM.

B3: 3F4 (antibody, V domains shown)
VH: B1 VH with T28I, S30R, W52S, R56S, H60Y
VL: B1 VL with K54N, G90E, V99G
Consider B3, for which the Kd came to 0.281 nM.

B4: 1A2 (antibody, V domains shown)
VH: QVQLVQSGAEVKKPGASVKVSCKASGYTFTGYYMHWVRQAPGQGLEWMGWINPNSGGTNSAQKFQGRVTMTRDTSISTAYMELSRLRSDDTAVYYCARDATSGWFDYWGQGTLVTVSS
VL: DIVMTQTPLSSPVTLGQPASISCRSSQSLVYSDGNTYLSWLQQRPGQPPRLLIYKISNRFSGVPDRFSGSGAGTDFTLKISRVEADDVGIYYCMQAIEFPWTFGQGTQVEIKR
The molecule B4 came in with a dissociation constant (Kd) of 2.14 nM.

B5: 1B5 (antibody, V domains shown)
VH: QVQLVQSGAEVKKPGASVKVSCKASGYTFTAYYMHWVRQAPGQGLEWMGWINPNSGGTNSAQKFQGRVTMTRDTSIRTAYMELSWLRSDDTAVYYCARDATSGWFDFWGQGTPVTVSS
VL: B4 VL with S10T, Y31H, S32Y, D86E, I97L, Q108K
Molecule B5 displayed a Kd of 0.578 nM. Against the preceding molecule, the Kd is about 3.7-fold lower.

B6: 10H3 (antibody, V domains shown)
VH: B5 VH with K12R, N54Y, R77S, P113L
VL: B4 VL with Y31H, S32Y, E84A, D86E, I97L, Q108K
In the case of B6, the Kd was found to be 0.563 nM.

B7: 3B4 (antibody, V domains shown)
VH: B5 VH with F107I
VL: B4 VL with Y31H, S32Y, D86E, I97L, Q108K
B7 displayed a Kd of 6.08 nM.

Usually Kd stands for the constant that tells how readily two partners part at equilibrium. A lower Kd goes with higher affinity.
